From patent US20260152573A1 (ARGENX, published 2026)

Experiments:
human serum albumin [1] = biological target: T1, human serum albumin (human, UniProt P02768 25-609); assay: SPR Biacore, HSA coated, steady state, pH 5.5
T1 construct: Immobilised on SPR chips; also added in solution in the FcRn occupancy assays; also called HSA; humanSA

[2] = biological target: T2, neonatal Fc receptor (FcRn), endogenous in U937 cells (human, UniProt P55899 24-365; P61769 21-119); assay: FcRn occupancy, FACS, U937 cells, with albumin
T2 construct: whole, on cells; Free FcRn was stained intracellularly after fixation and permeabilisation
Experimental: Next, FcRn occupancy was tested using a cell-based FcRn occupancy assay in the presence or absence of albumin. […] Cells (HEK FcRn mut or U937) were plated in a 96-well microplate. Cells were incubated with test article for two hours, shaking at 37° C., pH 7.4 in FACS buffer. Plates were then transferred immediately on ice and cells were collected by centrifugation at 4° C. Cells stained for viability in FACS buffer at pH 6 and then fixed/permeabilized in permeabilization buffer at pH 6. […] Cells were analyzed by FACS, ensuring that they are kept on ice until immediately prior to analysis.

human serum albumin [3] = biological target: T1, human serum albumin; assay: SPR Biacore, HSA coated, kinetic fit, pH 5.5
human serum albumin [4] = biological target: T1, human serum albumin; assay: SPR Biacore, HSA coated, kinetic fit, pH 7.4
human serum albumin [5] = biological target: T1, human serum albumin; assay: SPR Biacore, HSA coated, steady state, pH 7.4
[6] = biological target: T3, cynomolgus monkey serum albumin (cynomolgus monkey, UniProt A2V9Z4 25-608); assay: SPR Biacore 8K+ SCK, albumin on chip, pH 7.4
T3 construct: Immobilised on SPR chips; also called cynoSA; cynomolgus albumin

mouse serum albumin = biological target: T4, mouse serum albumin (mouse, UniProt P07724 25-608); assay: SPR Biacore 8K+ SCK, albumin on chip, pH 7.4
T4 construct: Immobilised on SPR chips; also called mouseSA; MSA

human serum albumin [7] = biological target: T1, human serum albumin; assay: SPR Biacore 8K+ SCK, albumin on chip, pH 7.4

Binder | Kd [6] | Kd (mouse serum albumin) | Kd (human serum albumin [7]) | other results
OA-Fc-ABDEG-Alb23 (Fc fusion, also called one-armed Fc-ABDEG-Alb23; OA-Fc-ABDEG-Alb23 (parental)) DKTHTCPPCPAPELLGGPSVFLFPPKPKDTLYITREPEVTCVVVDVSHEDPEVKFNWYVDGVEVHNAKTKPREEQYNSTYRVVSVLTVLHQDWLNGKEYKCKVSNKALPAPIEKTISKAKGQPREPQVYTLPPSRDELTKNQVSLWCLVKGFYPSDIAVEWESNGQPENNYKTTPPVLDSDGSFFLYSKLTVDKSRWQQGNVFSCSVMHEALKFHYTQKSLSLSPGGGGGSGGGGSGGGGSGGGGSEVQLLESGGGLVQPGGSLRLSCAASGFTFRSFGMSWVRQAPGKGPEWVSSISGSGSDTLYADSVKGRFTISRDNSKNTLYLQMNSLRPEDTAVYYCTIGGSLSRSSQGTLVTVSS Fc: DKTHTCPPCPAPELLGGPSVFLFPPKPKDTLYITREPEVTCVVVDVSHEDPEVKFNWYVDGVEVHNAKTKPREEQYNSTYRVVSVLTVLHQDWLNGKEYKCKVSNKALPAPIEKTISKAKGQPREPQVYTLPPSRDELTKNQVSLSCAVKGFYPSDIAVEWESNGQPENNYKTTPPVLDSDGSFFLVSKLTVDKSRWQQGNVFSCSVMHEALKFHYTQKSLSLSPG | – | – | – | Kd (human serum albumin [1]): 32.7 nM; % max occupancy [2]: 67.4%; IC50 [2]: 5.2 nM; Kd (human serum albumin [3]): 16.6 nM
OA-Fc-ABDEG-Alb23-G33A (Fc fusion) DKTHTCPPCPAPELLGGPSVFLFPPKPKDTLYITREPEVTCVVVDVSHEDPEVKFNWYVDGVEVHNAKTKPREEQYNSTYRVVSVLTVLHQDWLNGKEYKCKVSNKALPAPIEKTISKAKGQPREPQVYTLPPSRDELTKNQVSLWCLVKGFYPSDIAVEWESNGQPENNYKTTPPVLDSDGSFFLYSKLTVDKSRWQQGNVFSCSVMHEALKFHYTQKSLSLSPGGGGGSGGGGSGGGGSGGGGSEVQLLESGGGLVQPGGSLRLSCAASGFTFRSFAMSWVRQAPGKGPEWVSSISGSGSDTLYADSVKGRFTISRDNSKNTLYLQMNSLRPEDTAVYYCTIGGSLSRSSQGTLVTVSS Fc: DKTHTCPPCPAPELLGGPSVFLFPPKPKDTLYITREPEVTCVVVDVSHEDPEVKFNWYVDGVEVHNAKTKPREEQYNSTYRVVSVLTVLHQDWLNGKEYKCKVSNKALPAPIEKTISKAKGQPREPQVYTLPPSRDELTKNQVSLSCAVKGFYPSDIAVEWESNGQPENNYKTTPPVLDSDGSFFLVSKLTVDKSRWQQGNVFSCSVMHEALKFHYTQKSLSLSPG | – | – | – | Kd (human serum albumin [1]): 145 nM; Kd (human serum albumin [3]): 124 nM; Kd (human serum albumin [4]): 150 nM; Kd (human serum albumin [5]): 863 nM
Alb23 D57A (VHH, VHH alone) VHH: EVQLLESGGGLVQPGGSLRLSCAASGFTFRSFGMSWVRQAPGKGPEWVSSISGSGSATLYADSVKGRFTISRDNSKNTLYLQMNSLRPEDTAVYYCTIGGSLSRSSQGTLVTVSS | 6.25 nM | 50.6 nM | 5.58 nM | –
Alb23 K65A (VHH, VHH alone) VHH: EVQLLESGGGLVQPGGSLRLSCAASGFTFRSFGMSWVRQAPGKGPEWVSSISGSGSDTLYADSVAGRFTISRDNSKNTLYLQMNSLRPEDTAVYYCTIGGSLSRSSQGTLVTVSS | 3.18 nM | 52.3 nM | 5.36 nM | –
Alb23 S54A (VHH, VHH alone) VHH: EVQLLESGGGLVQPGGSLRLSCAASGFTFRSFGMSWVRQAPGKGPEWVSSISGAGSDTLYADSVKGRFTISRDNSKNTLYLQMNSLRPEDTAVYYCTIGGSLSRSSQGTLVTVSS | 3.13 nM | 25.6 nM | 2.81 nM | –
Alb23 S35A (VHH, VHH alone) VHH: EVQLLESGGGLVQPGGSLRLSCAASGFTFRSFGMAWVRQAPGKGPEWVSSISGSGSDTLYADSVKGRFTISRDNSKNTLYLQMNSLRPEDTAVYYCTIGGSLSRSSQGTLVTVSS | 5.24 nM | 37.6 nM | 4.95 nM | –
Alb23 I51A (VHH, VHH alone) VHH: EVQLLESGGGLVQPGGSLRLSCAASGFTFRSFGMSWVRQAPGKGPEWVSSASGSGSDTLYADSVKGRFTISRDNSKNTLYLQMNSLRPEDTAVYYCTIGGSLSRSSQGTLVTVSS | 5.53 nM | 42.3 nM | 5.17 nM | –
Alb23 R104A (VHH, VHH alone) VHH: EVQLLESGGGLVQPGGSLRLSCAASGFTFRSFGMSWVRQAPGKGPEWVSSISGSGSDTLYADSVKGRFTISRDNSKNTLYLQMNSLRPEDTAVYYCTIGGSLSASSQGTLVTVSS | 4.92 nM | 49.7 nM | 4.58 nM | –

Further lines, with some results ahead:

Kd [6] | Kd (mouse serum albumin) | Kd (human serum albumin [7]) | Binder | other results
2.6 nM | 19 nM | 2.33 nM | Alb23 S50A (VHH, VHH alone) VHH: EVQLLESGGGLVQPGGSLRLSCAASGFTFRSFGMSWVRQAPGKGPEWVSAISGSGSDTLYADSVKGRFTISRDNSKNTLYLQMNSLRPEDTAVYYCTIGGSLSRSSQGTLVTVSS | –
4.2 nM | 38.2 nM | 3.85 nM | Alb23 S103A (VHH, VHH alone) VHH: EVQLLESGGGLVQPGGSLRLSCAASGFTFRSFGMSWVRQAPGKGPEWVSSISGSGSDTLYADSVKGRFTISRDNSKNTLYLQMNSLRPEDTAVYYCTIGGSLARSSQGTLVTVSS | –
3.48 nM | 36.5 nM | 3.07 nM | Alb23 D62A (VHH, VHH alone) VHH: EVQLLESGGGLVQPGGSLRLSCAASGFTFRSFGMSWVRQAPGKGPEWVSSISGSGSDTLYAASVKGRFTISRDNSKNTLYLQMNSLRPEDTAVYYCTIGGSLSRSSQGTLVTVSS | –
5.84 nM | 39.5 nM | 3.97 nM | Alb23 G66A (VHH, VHH alone) VHH: EVQLLESGGGLVQPGGSLRLSCAASGFTFRSFGMSWVRQAPGKGPEWVSSISGSGSDTLYADSVKARFTISRDNSKNTLYLQMNSLRPEDTAVYYCTIGGSLSRSSQGTLVTVSS | –
4.11 nM | 31.9 nM | 2.9 nM | Alb23 V64A (VHH, VHH alone) VHH: EVQLLESGGGLVQPGGSLRLSCAASGFTFRSFGMSWVRQAPGKGPEWVSSISGSGSDTLYADSAKGRFTISRDNSKNTLYLQMNSLRPEDTAVYYCTIGGSLSRSSQGTLVTVSS | –
6.83 nM | 57.1 nM | 5.97 nM | Alb23 T58A (VHH, VHH alone) VHH: EVQLLESGGGLVQPGGSLRLSCAASGFTFRSFGMSWVRQAPGKGPEWVSSISGSGSDALYADSVKGRFTISRDNSKNTLYLQMNSLRPEDTAVYYCTIGGSLSRSSQGTLVTVSS | –
4.58 nM | 42.2 nM | 4.28 nM | Alb23 Y60A (VHH, VHH alone) VHH: EVQLLESGGGLVQPGGSLRLSCAASGFTFRSFGMSWVRQAPGKGPEWVSSISGSGSDTLAADSVKGRFTISRDNSKNTLYLQMNSLRPEDTAVYYCTIGGSLSRSSQGTLVTVSS | –
3.65 nM | 37.7 nM | 3.33 nM | Alb23 S56A (VHH, VHH alone) VHH: EVQLLESGGGLVQPGGSLRLSCAASGFTFRSFGMSWVRQAPGKGPEWVSSISGSGADTLYADSVKGRFTISRDNSKNTLYLQMNSLRPEDTAVYYCTIGGSLSRSSQGTLVTVSS | –
3.74 nM | 29.3 nM | 3.36 nM | Alb23 S31A (VHH, VHH alone) VHH: EVQLLESGGGLVQPGGSLRLSCAASGFTFRAFGMSWVRQAPGKGPEWVSSISGSGSDTLYADSVKGRFTISRDNSKNTLYLQMNSLRPEDTAVYYCTIGGSLSRSSQGTLVTVSS | –
